Reference: paper PMC7031079, “ATBS1-INTERACTING FACTOR 2 negatively regulates dark- and brassinosteroid-induced leaf senescence through interactions with INDUCER OF CBF EXPRESSION 1” (Journal of Experimental Botany, 2019)

Molecular target: T1, ICE1FL-myc (Arabidopsis thaliana, UniProt Q9LSE2 1-494)
T1 sequence (looked up): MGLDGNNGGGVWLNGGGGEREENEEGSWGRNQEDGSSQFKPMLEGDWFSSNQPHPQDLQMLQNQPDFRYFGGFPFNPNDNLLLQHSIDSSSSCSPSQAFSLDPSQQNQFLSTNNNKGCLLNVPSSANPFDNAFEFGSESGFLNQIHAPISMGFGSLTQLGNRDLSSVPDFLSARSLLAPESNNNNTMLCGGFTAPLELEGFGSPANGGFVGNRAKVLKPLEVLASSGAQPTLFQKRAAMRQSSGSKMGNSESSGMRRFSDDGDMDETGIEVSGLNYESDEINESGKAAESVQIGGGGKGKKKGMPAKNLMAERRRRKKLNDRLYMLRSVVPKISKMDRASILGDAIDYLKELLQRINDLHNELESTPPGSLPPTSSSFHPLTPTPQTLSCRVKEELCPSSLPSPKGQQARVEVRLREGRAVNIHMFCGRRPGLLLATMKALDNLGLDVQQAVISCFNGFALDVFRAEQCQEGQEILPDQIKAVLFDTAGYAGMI
Assay: cell-based or functional assay

B1: AIF2FL-nYFP (natural protein, Arabidopsis thaliana, UniProt Q9C8Z9 1-221, looked up)
chain: MASLISDIEPPTSTTSDLVRRKKRSSASSAASSRSSASSVSGEIHARWRSEKQQRIYSAKLFQALQQVRLNSSASTSSSPTAQKRGKAVREAADRALAVSARGRTLWSRAILANRIKLKFRKQRRPRATMAIPAMTTVVSSSSNRSRKRRVSVLRLNKKSIPDVNRKVRVLGRLVPGCGKQSVPVILEEATDYIQALEMQVRAMNSLVQLLSSYGSAPPPI
- pCBF2::Luc reporter expression in tobacco leaves on co-expression of full-length AIF2 (p35S::AIF2FL-EGFP) and ICE1 (p35S::ICE1FL-EGFP), against the non-transformed mock control: ~5 fold
